For the assay, the target named is His-tagged histone H2B.9 (Arabidopsis, UniProt O23629 1-150). Nature of the assay: reconstitution of histone heterodimers.
Chain of His-tagged histone H2B.9 (O23629 whole entry): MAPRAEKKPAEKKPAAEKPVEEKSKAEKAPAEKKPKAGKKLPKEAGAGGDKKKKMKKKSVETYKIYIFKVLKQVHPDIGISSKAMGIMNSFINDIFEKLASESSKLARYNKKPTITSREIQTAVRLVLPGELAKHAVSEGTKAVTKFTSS

B1: His-tagged histone H2A.Z.9 (natural protein)
chain: not shown
Turning to B1, the binding result is on record as “binds”.

B2: His-tagged histone H2A.X.3 (natural protein)
chain: MSSGAGSGTTKGGRGKPKATKSVSRSSKAGLQFPVGRIARFLKAGKYAERVGAGAPVYLSAVLEYLAAEVLELAGNAARDNKKTRIVPRHIQLAVRNDEELSKLLGSVTIANGGVLPNIHQTLLPSKVGKNKGDIGSASQEF
For the molecule B2, the binding result is “binds”.

Values taken from paper PMC10421056 (Science Advances, 2023).
